This data set can be described thus: label from the status in PepcDB records.

Consider “MDQQYDFGRPMGHERRSKEHDVTMRNRKTLDITGVKQVESFDNEEFLLETEMGFLSIRGRNLHMKNLNVEEGLVSIEGKIFDMVYLEQGQGEKSKGFFGKLFKLEHHHHHH”, for which the protein production entry was “failed”.
For “MDRFLVKGAQGGLLRKQEEQEPTGEEPAVLGGDKESTRKRPRGEAPGNGGHSAGPSWRHIRAEGLDCSYTVLFGKAEADEIFQELEKEVEYFTGALARVQVFGKWHSVPRKQATYGDAGLTYTFSGLTLSPKPWIPVLERIRDHVSGVTGQTFNFVLINRYKDGCDHIGEHRDDERELAPGSPIASVSFGACRDFVFRHKDSRGKSPSRRVAVVRLPLAHGSLLMMNHPTNTHWYHSLPVRKKVLAPRVNLTFRKILLTKK” the value was “failed”; for “MDRKKVMVRHSIASLVALGIFGGSRFLYNVIIGRKYGVETLGYTNSIISQAFFVAGFLAFFSVGLGKFTSEFLGKGEYNRIKKLTGISFTFPFLGLILIPLNFHVALLSVLRAIQLTFRSFIYGLHKGELYAYSVILAFPFFLLGFLDGPLLPYYLLLGTIGIFSLSYLVSRSLIGLPGREDTKALIGFSTWAFLGTIAGIFLLQAPYFLTEKLAGNIEAGIVSVALSTAFLLSYLPQILQSAIVPLYAYDYAKGDDKAIKELAENSTLLLSLFSSLLVFGLIFAKSFVEVLFNIKMGAELLLALIGVELYIAYNPLINLLTATKFVKKSAIFSLIGAMVSGIFWILLIPRLGAIGTLLGLTLGYAIIFALVLWESKRKFNINAKILKPTLLAIPLQLLSLKFPYTILIYLITEIKDIEKVMAFLRDIRS”, “failed”.
Next, “MDRLNQIQIILVETSLSANIGSAARAMKTMGLSNLRLVRPKNPLDEQATALAAGAKNILDNAQIFNTFDAAIADCQLIIGTSARLRHLQSTLVEPRECGKLIINNTNQHKIALIFGRERIGLTNEELLKCHYHLNVPTNPEYESLNLAMAVQLACYEIRMAWLELQKKPIIQPLTEEKNYPTAAAMAHFFDHTERLYKELGFIRNDAVMLKLRRLYQRAKLEENELNLLRGMLTAVEKHRIS”: “failed”; “MDRMDKAAKINIINANVRNAQTGDYYYNPYKIVNKTFTDTDGKQVTLKIGITGVLPTQILVWDKANLEGKVTVDDPMEAVKTIVPQMKAAGADFILVAAHSGIGDNEYTKNEENEGYQIAGIEGVDAVATGHSHADFPNGDGTSFYAKYPGVDDVNGLINGKPVVMAGKFGDHLGIMDVKLTYTDGKWKVVNSKAKLEKIDTKSDIADKALIDMAAHDHDGTILTMFVRKLVRPLPQSLAILLKFRTIHLFKS”: “failed”.
Next, “MDRNIDQELVSIIIPTHNRYESLIRAVKSCLHQSYKNIEVIIIDDNYSNVNLRNKIIHQFGYTNHRIKLILSNEDLGATNARNIGIKNSRGKYISFLDDDDEYMPDRILKLMACFKKSRMKNLALVCSYGIIIYPNGTREEEKTDFVGNPLFVQMVHNIAGTSFWLCKKEVLELINGFEKIDSHQDGVVLLKLLVQGYQIDIVREFLVNYYAHSKENGITGVTQKTINADEEYYNYCRKYFNLLSFNERILVTKKYYSLNIKRLLLIGDKCKALKVIKKAREEKIFNEFLF”: “failed”; “MDRNYSNWQSLTSLALFLLPFLFIGWLFDLFWPVTALALLGLVCWHYYYQQKLIKWLWQSRTLMPPSAPGSWSYIYDGIYRSQRRSQKRRKALARLLRRFREAAEALPDAAIVFRADGALLWSNKLAQFYFGLRWPDDAGQRLSNLIRHPEFYAYLNAGNFDEELTIPSPIRESLDIEIRIMPYSEDQFLLVARDVTQVKRLENLRREFVANVSHELKTPLTVLQGYLEMMDEPQQTPPAMLKKAVENMNAQSTRMANLVDQLLTLSRMETPSNDVFDHEVDMPALLEQLESEAKRLNEVKQHKIEFDVAPVRIYGKENLLRSAMQNLITNAINYTPDGGEIKVTWKTVAGGVEFSVKDNGKGIAAEHLPRLTERFYRVEDDRNSASGGTGLGLSIVKHAIEHHNSQLDINSSLEKGSRFSFRIPSGLLVS”: “failed”; “MDSDADGGETVSNFSENSTDFEETEEYIVERILDRRHYMGQLQYLVKWLDYSDEDNTWESAADLDCHSLIDSIESQKSLKRGQELNNQYETKAKRLKIDP”: “failed”.
Regarding “MDSQSENGSGAGNRTSIERRGDRELVVTRTFDAPRAMVYRAWSEPELFRRWWMPKSATGVTLVSCDMDVRTGGKYRLEFSTGGPQTMAFYGKYLDVVPNERIVWTNDEGEADAGEKGAITTVTFEDHGSQTLLRFHEVYPTAEALEEALQGSAAALPEQFDQLGEVLSGSGGKQ”, the protein production entry is recorded as “failed”.
For “MDTAASPLTYRDATDADVDALVALIESAYRGDASRAGWTTEADILQGQRTDPQGVLEVVKAPDSRLLTVERDGRIVACCQLEHRGAHAYFGMFAVSPALQGAGLGKAIIAEAERQARTTWGVTEMHMTVISVRDDLIAWYERRGYRRTGETTPFPYGDERFGIPQRADLRFELLVKPLV” the value was “failed”; for “MDTAVVYYVLATALVLIGLAGVILPALPGLPLVFAGLLVAAWADNFTHIGWVTLVVLGLITALSYLVDFLATLYGAQRVGASKMALWGSVIGGIAGIFFMPIGLFIGPFAGAWLGEYYQTRKSGQATKVGIGTWVGIMLGTATKLALGLCMLGAFAIGWFF”, “failed”; for “MDTMSQILKLLEKTDSIEINEFRMDVDELELTIMPTLQNVVQKVVEKQIEAKKEFESQIEFKYPVKDYAGKVNEVKLGGKNRKTVKLGGQTSLYRFEEPQPNAPTVTFDVFDIPMNGLPRPIKENFEDVMHSPGEWAQKAVKEFGADMITLHLIGTDPKVKDKSLKDAAKDLEEVLQAVKVPLVIGGSGNPKKDPLVLEMAAEVADGERCLLASANLDLDYQKIAQAAVKHDHAVLSWAISDINMQKVLNKALMKEGLTANDIVMDPTTCALGYGIEFSIDVMTRTRLSALKGDEILQMPMSSGTTNAWGSREAWMKKDEWGPTKYRGPIWEVVTGLTMMLCGVDIFMMLHPLSVKTLKEIGTTLTYEYKSKESQDISDWINKF”, “not failed”.
Turning to “MDTPSRRSFLLAGGSFAIGVGAGLGIAHRDDVLPSRVVWAFETTGRIVSSPTVGDGTVYVGSDDSTVHSVSTSDGTRRTTARLHTKAGVFSSPALGADGGLYVGSTDTAIYGLFSSPGARDEWRFETTDWVTASPAVADGTVYVGSTDGTMYALNAETGAEQWRFETGDGIVSSPAVVDGTVYVGSTDGTVYALDADSGTDRWQFDTEGRVYSSPTVADGTVYVGSYDANIYAIDTTDGVEQWQFETGDSIWSSPTVLEETLWIGSKDAALYAVATEDGSEQWRFPTGGEVNSSPTVAGETVYVGSDDANLYAVAASDGSERWTFETGGAVQSSPTVADGTVYVGSGDSTLYALDADETGSSEGSRAELRTLGYFAE”, the protein production entry is “failed”.
Next, “MDTRKNVSGAERKIWSLIRDCSGKLEGVTETSVLEVLLIVSRVLGIRKEDLFLKDLGVSPTEEKRILELVEKRASGYPLHYILGEKEFMGLSFLVEEGVFVPRPETEELVELALELIRKYGIKTVADIGTGSGAIGVSVAKFSDAIVFATDVSSKAVEIARKNAERHGVSDRFFVRKGEFLEPFKEKFASIEMILSNPPYVKSSAHLPKDVLFEPPEALFGGEDGLDFYREFFGRYDTSGKIVLMEIGEDQVEELKKIVSDTVFLKDSAGKYRFLLLNRRSS”: “not failed”.
Next, “MDTSRLRPTSPLVRQAAACLDAGEADHADVLLDLHLSRHPEDSAGLILFGLTRVALGRPLEAEQPLRRALALDPIDDPFHARAVCALVDVLKAQGRMAEVSEVLERAGDVAPMNAVFPRMLGAHYRALGQVGAAITAARRAVAVESADGENWRGLAATLLGGAPGEALEALERAKTCGDDGADWWNIRGVALAALGEGEAAREAFKNAILRDGAAPMAWTNLGNLEIRAARSADALERAVEAYGQAIRRAPDSFEAHNNLAQALRDLGRRDEALVHAERAASLRPHDVTVLNTQANILRGLRRVDEAVAILERALACDGRSAETHSNLGLALLAAQDRQRAEEHFRKAAALAPDCVDIIVNLACFLIHINAGKEVLGVLEPALARFPGDVGLLATLGLHYFQENAYEDCATVFETVLAKKPDHVEARASLGVVRWSQGRLVESLALAQSIREDFPEDIRTLFLLGCVHSDLMENASALEVFDLAVEKGGERVPPFHYSNCCFSFHYVEAMEKDDLFARHRRWDALYGAGATELSDVTHHNTRDPERRLRIGYVSPDFRRHSVAYFFLPLVGAHDRAAVEVTCYSLSTLTDQMTDLIREGCDRWRDITTLPAEKAAERVREDEIDILVDLSGHTANNGLSIFALKPAPVQVTYLGYPNTTGLSAIDYRLTDGFADPLGVDEDPASETLWRLPRSFLLFDEVPGLPDPAPPPVLSRGTITFGSFNNMAKVNRGCVAVWKRILDAVPGSRLLLKAKGFRDPATAKVLIERLIDWGVDPEQVSYAPYAKNLMEHVAVYAEVDIALDTFPYNGTTTTFEALHMGVPVIGLRGHRHSGRVGASILGNLGLADRLLGEDVDDMVAKAVALAGDLEGLMRMRAGLRERLRASPLQDGPGFVADLEGAYRAMWRRWCAGPPTFHRQPKNGMWAVEEMEDAIEPVLG”: “failed”; “MDTTKTIAALFDFDGVIMDTETQYTVFWDEQGRKYLNEEDFGRRIKGQTLTQIYEKYFSDLPEAQQEITAGLNIYEKSMSYEYIPGVEAFIADLRKHGAKIAVVTSSNEEKMQNVYNAHPEFKGMVDRILTGEMFARSKPAPDCFLLGMEIFGATPENSYVFEDSFHGLQAGMTSGATVIGLATTNTREAITGKAHYIIDDFSEMTFEHLLALHR”: “failed”; “MDVDTAFLNSTMDEPIYVKQPPGFVNERNPDYVWELYGGMYGLKQAPLLWNEHINNTLKKIGFCRHEGEHGLYFRSTSDGPIYIAVYVDDLLVAAPSPKIYDRVKQELTKLYSMKDLGKVDKFLGLNIHQSSNGDITLSLQDYIAKAASESEINTFKLTQTPLCNSKPLFETTSPHLKDITPYQSIVGQLLFCANTGRPDISYPVSLLSRFLREPRAIHLESARRVLRYLYTTRSMCLKYRSGSQLALTVYCDASHGAIHDLPHSTGGYVTLLAGAPVTWSSKKLKGVIPVPSTEAEYITASETVMEI”: “failed”.
For “MDVEAWLDERVPLVETHHHHHHENLYFQSHMNHGANIFGVAFNTLLGKDEPQVFATAGSNRVTVYECPRQGGMQLLHCYADPDPDEVFYTCAWSYDLKTSSPLLAAAGYRGVIRVIDVEQNEAVGNYIGHGQAINELKFHPHKLQLLLSGSKDHAIRLWNIQSHVCIAILGGVEGHRDEVLSIDFNMRGDRIVSSGMDHSLKLWCLNTPEFHHKIELSNTFSQEKSTLPFPTVTKHFPDFSTRDIHRNYVDCVQWFGNFVLSKSCENAIVCWKPGQLHQSFEQVKPSDSSCTIIAEFEYDECEIWFVRFGFNPWQKVIALGNQQGKVYVWELDPSDPEGAHMTTLHNSRSVATVRQIAFSRDASVLVYVCDDATVWRWNRRQTTSI” the value was “failed”; for “MDVFSDRVLLTEESPIRKLVPFAEMAKKRGVRIHHLNIGQPDLKTPEVFFERIYENKPEVVYYSHSAGIWELREAFASYYKRRQRVDVKPENVLVTNGGSEAILFSFAVIANPGDEILVLEPFYANYNAFAKIAGVKLIPVTRRMEEGFAIPQNLESFINERTKGIVLSNPCNPTGVVYGKDEMRYLVEIAERHGLFLIVDEVYSEIVFRGEFASALSIESDKVVVIDSVSKKFSACGARVGCLITRNEELISHAMKLAQGRLAPPLLEQIGSVGLLNLDDSFFDFVRETYRERVETVLKKLEEHGLKRFTKPSGAFYITAELPVEDAEEFARWMLTDFNMDGETTMVAPLRGFYLTPGLGKKEIRIACVLEKDLLSRAIDVLMEGLKMFCSSRISC”, “not failed”; for “MDVLSLVGIILAFVAIVGGNFLEGGHAGALLNGPAALIVIGGTLAAALLQTPVNVLKRGLGMLGWVFFPPREDLSGGIDRIVSWSMTARKEGLLGLESIADAEPDPYARKGLQLLVDGAEPEVIRSILEVDLFTQESRDLQAAKVFESMGGYAPTIGIIGAVMGLIHVMGNLANPAQLGSGIAVAFVATIYGVGFANLLLLPIGNKLKTLVLRQSRYREMLLEGLLSIAEGENPRSIELKLQGFMD”, “failed”.

Source of the values: a protein production outcome set (Wang et al. 2014).
